Reference: patent US20190022222A1, “NEUTRON CAPTURE THERAPY SYSTEM FOR ELIMINATING AMYLOID Beta-PROTEIN DEPOSITION PLAQUE” (NEUBORON MEDTECH LTD., priority 2016, published 2019)

B1: Gantenerumab: monoclonal antibody that binds to the N-terminal epitope of Aβ (antibody, chains of the INN, looked up, V domains shown)
VH: QVELVESGGGLVQPGGSLRLSCAASGFTFSSYAMSWVRQAPGKGLEWVSAINASGTRTYYADSVKGRFTISRDNSKNTLYLQMNSLRAEDTAVYYCARGKGNTHKPYGYVRYFDVWGQGTLVTVSS
VL: DIVLTQSPATLSLSPGERATLSCRASQSVSSSYLAWYQQKPGQAPRLLIYGASSRATGVPARFSGSGSGTDFTLTISSLEPEDFATYYCLQIYNMPITFGQGTKVEIK

Assays:
amyloid β-protein = amyloid β-protein (Homo sapiens, UniProt P05067); experiment: equilibrium dissociation constant KD with amyloid β-protein solution; assay type: binding; settings: amyloid β-protein solution 10 μM, compound 0.1 to 10 μM, room temperature 20 min
Experimental: In the examples of the present disclosure, the affinity of the ^10B-containing compound and the amyloid β-protein deposition plaque is evaluated by using the equilibrium dissociation constant KD value. KD can indicate the degree of dissociation of the two substances in the equilibrium state.
The amyloid β-protein solution was prepared at a concentration of 10 μM and mixed with compound I or compound II at different concentrations (concentrations ranging from 0.1 to 10 μM). […] In addition, a known compound capable of specifically binding to amyloid β-protein was used as a control and mixed with a amyloid β-protein solution at a concentration of 10 μM and allowed to stand at room temperature for 20 min. The equilibrium dissociation constant KD was also measured and calculated.

Aβ = settings: phase III clinical trial, latest results; cited from earlier work
Aβ, sequence (P05067 672-711 limits assumed): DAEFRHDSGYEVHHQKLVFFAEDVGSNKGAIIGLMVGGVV

amyloid β-protein, sequence (P05067 672-713 limits assumed): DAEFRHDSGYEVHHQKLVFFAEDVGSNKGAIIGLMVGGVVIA

Row | Molecule | Kd (amyloid β-protein) [nM] | Aβ level in cerebrospinal fluid (Aβ) | tau protein level in cerebrospinal fluid (Aβ)
1 | Cc1ccc(C(=O)/C=C/c2ccc(N)cc2)o1 [control] | 1590 | – | –
2 | B1 | – | does not significantly reduce | significantly reduces
